We go through two molecules from article PMC3155373 (2011).

This experiment has as its target Green fluorescent protein (acid-denatured) (Aequorea victoria, UniProt P42212 = GFP). Put plainly: GFP refolding fluorescence kinetics (one-site fit, apparent Kd).

B1: Protein disulfide isomerase (HuPDI) (protein)
chain: not shown
With B1, the Kd turned out to be 180 nM.

B2: Protein disulfide isomerase (YPDI) (protein)
chain: PEDSAVVKLATDSFNEYIQSHDLVLAEFFAPWCGHCKNMAPEYVKAAETLVEKNITLAQIDCTENQDLCMEHNIPGFPSLKIFKNSDVNNSIDYEGPRTAEAIVQFMIKQSQPAVAVVADLPAYLANETFVTPVIVQSGKIDADFNATFYSMANKHFNDYDFVSAENADDDFKLSIYLPSAMDEPVVYNGKKADIADADVFEKWLQVEALPYFGEIDGSVFAQYVESGLPLGYLFYNDEEELEEYKPLFTELAKKNRGLMNFVSIDARKFGRHAGNLNMKEQFPLFAIHDMTEDLKYGLPQLSEEAFDELSDKIVLESKAIESLVKDFLKGDASPIVKSQEIFENQDSSVFQLVGKNHDEIVNDPKKDVLVLYYAPWCGHCKRLAPTYQELADTYANATSDVLIAKLDHTENDVRGVVIEGYPTIVLYPGGKKSESVVYQGSRSLDSLFDFIKENGHFDVDGKALYEEAQEKAAEEADADAELADEEDAIHDEL
Turning to B2, the Kd worked out at 300 nM.
